Experimental data as given in PMC6050537, “Inhibition of low-density lipoprotein receptor degradation with a cyclic peptide that disrupts the homodimerization of IDOL E3 ubiquitin ligase” (Chemical Science, 2018).

Legend:
[1] = molecular target: Full length IDOL (1–445) (UniProt Q8WY64); experiment: MST; as a6 but in the presence of RINGpep2 (100 μM); apparent; homodimer to monomers
[2] = molecular target: Full length IDOL (1–445) (UniProt Q8WY64); experiment: MST; increasing concentrations of unlabelled IDOL titrated into a 45 nM solution of dye-labelled IDOL; homodimer to monomers

apparent KD in the presence of RINGPep2 (100 μM) [1]: 11.1 µM | Kd [2]: 2900 nM
Substance: Full length IDOL (1–445) (from UniProt Q8WY64 1-445) (enzyme)
